This note sets out measurements from patent US20170304435A1 (GOVERNING COUNCIL OF THE UNIVERSITY OF TORONTO, published 2017).

Series [1] concerns the molecule itself. The series is described as follows: native PAGE and FLAG immunoblot, HBP-treated Jurkat cells. For orientation: In western blotting, separated proteins are transferred to a membrane and probed.
Series [2] addresses T1, TRAF2, endogenous in Jurkat cells (UniProt Q12933 2-501, limits assumed).
T1 construct: Endogenous protein probed by immunoblot with rabbit anti-TRAF2 (sc-876)
T1 sequence (looked up): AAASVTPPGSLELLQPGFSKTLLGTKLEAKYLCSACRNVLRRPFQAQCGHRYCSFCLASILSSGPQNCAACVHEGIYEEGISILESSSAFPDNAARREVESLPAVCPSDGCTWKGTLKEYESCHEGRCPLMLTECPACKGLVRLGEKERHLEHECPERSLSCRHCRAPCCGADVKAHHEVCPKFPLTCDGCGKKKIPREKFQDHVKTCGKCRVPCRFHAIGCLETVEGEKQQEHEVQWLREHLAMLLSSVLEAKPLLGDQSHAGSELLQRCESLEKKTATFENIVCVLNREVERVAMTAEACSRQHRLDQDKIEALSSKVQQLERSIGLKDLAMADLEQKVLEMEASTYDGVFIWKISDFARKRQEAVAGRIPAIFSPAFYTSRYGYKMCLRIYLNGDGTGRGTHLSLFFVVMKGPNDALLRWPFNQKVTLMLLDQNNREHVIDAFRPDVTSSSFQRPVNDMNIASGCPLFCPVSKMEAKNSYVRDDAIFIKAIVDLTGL
Nature of the series: FLAG-TIFA immunoprecipitation from Jurkat cells, immunoblot for TRAF2.
Protocol: Briefly, cells were lysed in 50 mM Hepes-KOH pH 8.0, 100 mM KCl, 2 mM EDTA, 0.1% NP40, 10% glycerol. Soluble cell lysates were pre-cleared for 2 hr with mouse IgG agarose (Sigma) and immunoprecipitated overnight at 4° C. Proteins eluted using 0.5 M NH₄OH pH 11 (for mass-spectrometry), or 3× FLAG-peptide (Sigma) (immunoblot analysis). […] Data were analyzed by Scaffold PTM (Proteome).

In series [3] the target is T2, TRAF6 (ubiquitin ligase, tumor necrosis factor receptor-associated factor 6), endogenous in Jurkat or 293T … (UniProt Q9Y4K3 1-522).
T2 construct: Endogenous protein detected by immunoblot or immunostaining with mouse anti-TRAF6 (sc-8409)
T2 sequence (looked up): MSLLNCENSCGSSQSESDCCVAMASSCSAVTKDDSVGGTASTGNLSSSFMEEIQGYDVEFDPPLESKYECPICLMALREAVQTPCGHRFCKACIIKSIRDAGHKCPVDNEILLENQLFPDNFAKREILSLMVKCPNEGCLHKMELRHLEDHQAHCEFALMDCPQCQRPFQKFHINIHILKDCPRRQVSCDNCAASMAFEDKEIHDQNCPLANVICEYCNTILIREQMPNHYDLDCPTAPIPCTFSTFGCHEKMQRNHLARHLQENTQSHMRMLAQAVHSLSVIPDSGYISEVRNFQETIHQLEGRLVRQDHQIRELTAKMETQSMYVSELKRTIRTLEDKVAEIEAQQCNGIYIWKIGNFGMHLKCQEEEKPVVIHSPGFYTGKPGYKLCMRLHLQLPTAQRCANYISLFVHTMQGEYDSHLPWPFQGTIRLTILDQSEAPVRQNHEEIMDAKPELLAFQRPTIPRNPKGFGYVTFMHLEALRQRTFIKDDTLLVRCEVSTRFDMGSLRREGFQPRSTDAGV
Nature of the series: FLAG immunoprecipitation from HBP-treated Jurkat cells, immunoblot for TRAF6.
Protocol: Briefly, cells were lysed in 50 mM Hepes-KOH pH 8.0, 100 mM KCl, 2 mM EDTA, 0.1% NP40, 10% glycerol. Soluble cell lysates were pre-cleared for 2 hr with mouse IgG agarose (Sigma) and immunoprecipitated overnight at 4° C. Proteins eluted using 0.5 M NH₄OH pH 11 (for mass-spectrometry), or 3× FLAG-peptide (Sigma) (immunoblot analysis).

Series [4] deals with the molecule itself. The series is described as follows: confocal microscopy of FLAG-TIFA aggregates in HBP-treated 293T cells.
Series [5] deals with the molecule itself. Nature of the series: confocal microscopy of TIFA aggregates in HBP-treated 293T cells.

B1: FLAG-TIFA wild type (TRAF-interacting forkhead associated protein A with one N-terminal FLAG sequence), from HBP-treated cells (other, not shown: small tags and cut ends)
chain: MTSFEDADTEETVTCLQMTVYHPGQLQCGIFQSISFNREKLPSSEVVKFGRNSNICHYTFQDKQVSRVQFSLQLFKKFNSSVLSFEIKNMSKKTNLIVDSRELGYLNKMDLPYRCMVRFGEYQFLMEKEDGESLEFFETQFILSPRSLLQENNWPPHRPIPEYGTYSLCSSQSSSPTEMDENES
modifications: phospho-threonine 9 (pT9), found only after treatment with HBP
notes: Forms oligomers after HBP; also called FLAG-TIFA wildtype (wt); Wt
As for B1, the values for the binding result in series [1] and in series [2] were “binds” and “no binding”, respectively.

B2: FLAG-TIFA G50E/S66A (mutations in the FHA domain) (other, not shown: small tags and cut ends)
chain: MTSFEDADTEETVTCLQMTVYHPGQLQCGIFQSISFNREKLPSSEVVKFERNSNICHYTFQDKQVARVQFSLQLFKKFNSSVLSFEIKNMSKKTNLIVDSRELGYLNKMDLPYRCMVRFGEYQFLMEKEDGESLEFFETQFILSPRSLLQENNWPPHRPIPEYGTYSLCSSQSSSPTEMDENES
notes: Double point mutant of FLAG-TIFA; stably expressed with endogenous TIFA knocked down; also called FHA mutant
On to B2, for which the binding result in series [3] is reported as “no binding”.

B3: FLAG-TIFA E178A (mutation in the TRAF6 binding site) (other, not shown: small tags and cut ends)
chain: MTSFEDADTEETVTCLQMTVYHPGQLQCGIFQSISFNREKLPSSEVVKFGRNSNICHYTFQDKQVSRVQFSLQLFKKFNSSVLSFEIKNMSKKTNLIVDSRELGYLNKMDLPYRCMVRFGEYQFLMEKEDGESLEFFETQFILSPRSLLQENNWPPHRPIPEYGTYSLCSSQSSSPTAMDENES
notes: Point mutant of FLAG-TIFA; stably expressed with endogenous TIFA knocked down; also called TRAF6 (E178A) mutant
Turning to B3, the binding result in series [4] is “binds”; in series [3] it was “no binding”.

B4: FLAG-TIFA T9A (other, not shown: small tags and cut ends)
chain: MTSFEDADAEETVTCLQMTVYHPGQLQCGIFQSISFNREKLPSSEVVKFGRNSNICHYTFQDKQVSRVQFSLQLFKKFNSSVLSFEIKNMSKKTNLIVDSRELGYLNKMDLPYRCMVRFGEYQFLMEKEDGESLEFFETQFILSPRSLLQENNWPPHRPIPEYGTYSLCSSQSSSPTEMDENES
notes: Point mutant of FLAG-TIFA made with QuickChange II; stably expressed with endogenous TIFA knocked down
B4: the binding result in series [5] and in series [3] was “no binding” in each case.
